Results on one substance are retold here after article PMC5431922.

Assay [1] addresses 20.8-kDa tegumental-allergen-like protein from Clonorchis sinensis (CsTAL3), full-length (aa 1-184) (Clonorchis sinensis). Briefly: AUC; sedimentation velocity, 20 °C, 2.5 and 0.6 mg/mL, 50 x 10^3 rpm, interference optics, c(s) analysis; without CaCl2 and with 5 mM CaCl2.
Assay [2] shares this target. The assay is described as follows: SAXS; 20 °C, 20 mM Tris-HCl pH 7.5, 100 mM NaCl, without or with 5 mM CaCl2; 1.9 to 5.2 mg/mL; molecular mass estimated against standard proteins.

On to “20.8-kDa tegumental-allergen-like protein from Clonorchis sinensis (CsTAL3), full-length (aa 1-184) (natural protein)”, for which the stoichiometry N in assay [1] and in assay [2] was 2 each time.
